Reference: the RNAGym collection of RNA variant scans (doi:10.1093/nar/gkz1192)

B1: CPEB3 Ribozyme (parent)
chain: UAACAGGGGGCCACAGCAGAAGCGUUCACGUCGCAGCCCCUGUCAGAUUCUGGUGAAUCUGCGAAUUCUGCUGUAUAUCUC

Variants of: B1
Assay: self-cleavage, relative activity (ratio to wild type); higher = more cleavage; in vitro, sequencing
Method in brief: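 For each CPEB3 ribozyme variant, relative activity is its cleaved/total read fraction divided by the unmutated ribozyme's. Barcoded error-prone PCR libraries were transcribed by T7 RNA polymerase (5 hours, 37°C) and held in DNase I for 15 min before an EDTA stop, with cleavage occurring throughout. Template-switching reverse transcription and Illumina sequencing were used to read the RNAs. A 5-read minimum applied, and results are the mean of three batches.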
C14G U72C showed a self-cleavage of 0.69.
Work on C14A G63A yielded a self-cleavage of 0.93.
In the case of C14A G63U, the self-cleavage is reported as 1.14.
With C14U U54C the self-cleavage was 1.25.
With C14U U54G the self-cleavage was 1.16.
Work on A15C G53C yielded a self-cleavage of 0.95.
Variant A15C U67C has a self-cleavage of 0.18.
A15C U31C showed a self-cleavage of 0.6.
For A15C U31A, the self-cleavage was 0.42.
Work on A15G A57G yielded a self-cleavage of 0.63.
Work on A15G A57U yielded a self-cleavage of 0.56.
With A13U U26G the self-cleavage was 0.4.
Work on A13U U26A yielded a self-cleavage of 1.08.
In the case of A13U U26C, the self-cleavage is reported as 0.64.
With C14U U58C the self-cleavage was 0.77.
Variant A15C C40U has a self-cleavage of 0.72.
Variant C14G A65U has a self-cleavage of 0.26.
Variant C14G A65C has a self-cleavage of 0.32.
With A15C the self-cleavage was 0.92.
For A15G, the self-cleavage was 0.92.
For C14U G61C, the self-cleavage was 0.35.
Work on A15G A47U yielded a self-cleavage of 0.64.
With A15G A47G the self-cleavage was 0.87.
Variant C14A A56G has a self-cleavage of 1.1.
In the case of C14U A21G, the self-cleavage is reported as 0.78.
Work on C14G G53A yielded a self-cleavage of 1.19.
For C14A A20G, the self-cleavage was 0.96.
For C14U U43G, the self-cleavage was 0.27.
Work on C14U U43C yielded a self-cleavage of 1.08.
Variant C14U U43A has a self-cleavage of 1.18.
A15G A65G showed a self-cleavage of 0.39.
Variant A15G A65U has a self-cleavage of 0.23.
In the case of C14U G22A, the self-cleavage is reported as 0.41.
Variant C14U G22C has a self-cleavage of 0.18.
Variant A15C U78C has a self-cleavage of 0.87.
Work on A15C U78A yielded a self-cleavage of 1.05.
C14U U51A showed a self-cleavage of 1.24.
C14U U51C gave a self-cleavage of 1.25.
Variant A15C A18G has a self-cleavage of 0.41.
A15C A18U showed a self-cleavage of 0.32.
Work on A15C A18C yielded a self-cleavage of 0.35.
In the case of A13U U60C, the self-cleavage is reported as 0.64.
In the case of A13U U60A, the self-cleavage is reported as 0.73.
In the case of A15G C32G, the self-cleavage is reported as 0.11.
A15G C32U gave a self-cleavage of 0.19.
Variant A15G C32A has a self-cleavage of 0.24.
With A13U U78C the self-cleavage was 1.23.
A13U U78A gave a self-cleavage of 1.21.
With C14U A28G the self-cleavage was 0.76.
Variant C14U A28U has a self-cleavage of 1.21.
In the case of C14U A65U, the self-cleavage is reported as 0.34.
For A13U U67C, the self-cleavage was 0.3.
For A13U U67A, the self-cleavage was 0.7.
In the case of A15C A35G, the self-cleavage is reported as 1.08.
In the case of C14U C39A, the self-cleavage is reported as 0.55.
Work on C14A A75U yielded a self-cleavage of 1.23.
In the case of C14U A47U, the self-cleavage is reported as 1.21.
With C14U A47G the self-cleavage was 0.7.
Work on A15G A28C yielded a self-cleavage of 0.53.
In the case of A15G A28G, the self-cleavage is reported as 0.49.
With A15G A28U the self-cleavage was 0.39.
C14G U25C gave a self-cleavage of 0.17.
Work on C14U U60A yielded a self-cleavage of 0.53.
Variant C14U U60G has a self-cleavage of 0.41.
Variant C14A G19A has a self-cleavage of 0.29.
Variant C14U U80C has a self-cleavage of 1.33.
In the case of A13U G53A, the self-cleavage is reported as 1.27.
A15C U69C showed a self-cleavage of 0.26.
Work on C14A U72C yielded a self-cleavage of 1.22.
For A13U G33C, the self-cleavage was 0.2.
With A13U G33A the self-cleavage was 0.21.
A13U G33U showed a self-cleavage of 0.11.
A15C A20U gave a self-cleavage of 0.35.
Variant A15C A20C has a self-cleavage of 0.19.
In the case of A15C A20G, the self-cleavage is reported as 0.66.
In the case of A15C C34U, the self-cleavage is reported as 0.29.
For C14A C17G, the self-cleavage was 0.44.
With C14A A57U the self-cleavage was 1.14.
A13U U54G gave a self-cleavage of 1.01.
A13U U54A showed a self-cleavage of 1.18.
In the case of A13U U54C, the self-cleavage is reported as 1.1.
Work on C14G U51C yielded a self-cleavage of 1.16.
In the case of A15C G73A, the self-cleavage is reported as 1.26.
Work on A13U U72C yielded a self-cleavage of 0.96.
A13U U72G showed a self-cleavage of 0.76.
For A13U U72A, the self-cleavage was 0.77.
With A15G C27U the self-cleavage was 0.27.
For A15G C27A, the self-cleavage was 0.21.
In the case of C14A G42A, the self-cleavage is reported as 0.09.
Variant C14G U54C has a self-cleavage of 1.03.
Work on C14U G52C yielded a self-cleavage of 1.23.
For C14U C40A, the self-cleavage was 0.24.
Work on C14U C40U yielded a self-cleavage of 1.07.
With A15C A45G the self-cleavage was 0.88.
A15C A45C gave a self-cleavage of 0.37.
Variant A15C A45U has a self-cleavage of 0.45.
Work on C14U U25A yielded a self-cleavage of 0.44.
Work on C14U U25C yielded a self-cleavage of 0.28.
In the case of A13U G55U, the self-cleavage is reported as 0.83.
C14U A56U showed a self-cleavage of 0.5.
C14U A56G showed a self-cleavage of 1.23.
In the case of C14A U74A, the self-cleavage is reported as 1.25.
In the case of C14A U74C, the self-cleavage is reported as 1.23.
With C14U A64G the self-cleavage was 1.17.
Work on C14U A64U yielded a self-cleavage of 0.61.
For C14A U76C, the self-cleavage was 0.94.
Variant C14U C29U has a self-cleavage of 0.72.
With C14A U26C the self-cleavage was 0.63.
Variant C14U U49C has a self-cleavage of 0.33.
Work on A15G A77U yielded a self-cleavage of 0.97.
In the case of A15G A77C, the self-cleavage is reported as 1.1.
Work on A15G A77G yielded a self-cleavage of 1.15.
C14U G46A showed a self-cleavage of 0.12.
Work on C14U G46U yielded a self-cleavage of 0.27.
With A13U U41A the self-cleavage was 0.26.
A13U U41C gave a self-cleavage of 1.2.
For C14U U69C, the self-cleavage was 0.57.
In the case of C14A C32A, the self-cleavage is reported as 0.2.
For C14A C32U, the self-cleavage was 0.21.
C14U G33A gave a self-cleavage of 0.21.
A15C U51A showed a self-cleavage of 1.06.
In the case of A15C U51C, the self-cleavage is reported as 0.68.
Work on A15C G24A yielded a self-cleavage of 0.18.
In the case of A15C U72C, the self-cleavage is reported as 1.1.
For A15C U72A, the self-cleavage was 0.8.
For C14A G70U, the self-cleavage was 0.22.
With C14G A20U the self-cleavage was 0.26.
With A15C A21G the self-cleavage was 0.49.
A15C A21C gave a self-cleavage of 0.26.
Work on A15C A21U yielded a self-cleavage of 0.34.
C14A G53A gave a self-cleavage of 1.38.
With A13U U51C the self-cleavage was 0.94.
Variant A13U U51G has a self-cleavage of 1.27.
A13U U51A showed a self-cleavage of 1.21.
In the case of A15G A56U, the self-cleavage is reported as 0.39.
With A15G A56G the self-cleavage was 0.62.
A15G A56C gave a self-cleavage of 0.35.
C14U A75G gave a self-cleavage of 1.23.
C14U A75U showed a self-cleavage of 1.23.
With C14U the self-cleavage was 1.15.
For C14G, the self-cleavage was 1.08.
For C14A, the self-cleavage was 1.17.
C14A U43A showed a self-cleavage of 1.24.
Variant C14A U43C has a self-cleavage of 0.83.
Variant A13U G52C has a self-cleavage of 1.24.
A13U G52A gave a self-cleavage of 1.22.
C14G U74C showed a self-cleavage of 0.89.
With C14U C23G the self-cleavage was 0.12.
For A15G C23U, the self-cleavage was 0.29.
Variant A15G C23A has a self-cleavage of 0.19.
Variant A15G C23G has a self-cleavage of 0.42.
C14G A21U showed a self-cleavage of 0.16.
Work on C14G A21G yielded a self-cleavage of 0.45.
With A13U G70A the self-cleavage was 0.48.
Variant A13U G70C has a self-cleavage of 0.21.
Work on C14A U69C yielded a self-cleavage of 0.4.
Work on C14A U69A yielded a self-cleavage of 0.48.
In the case of C14U C17U, the self-cleavage is reported as 0.87.
A15C U58A showed a self-cleavage of 0.41.
For A15C U58C, the self-cleavage was 0.21.
Variant A15C U58G has a self-cleavage of 0.29.
Work on C14U U76C yielded a self-cleavage of 1.15.
In the case of A15G A45G, the self-cleavage is reported as 0.66.
A15G A45U gave a self-cleavage of 0.44.
A15G A45C gave a self-cleavage of 0.31.
A15G A75G gave a self-cleavage of 0.92.
With A15G A75U the self-cleavage was 1.02.
